Source: the RNAGym collection of RNA variant scans (doi:10.1093/molbev/msab373)

B1: Azoarcus group I ribozyme (parent)
chain: GUGCCUUGCGCCGGGAAACCACGCAAGGGAUGGUGUCAAAUUCGGCGAAACCUAAGCGCCCGCCCGGGCGUAUGGCAACGCCGAGCCAAGCUUCGGCGCCUGCGCCGAUGAAGGUGUAGAGACUAGACGGCACCCACCUAAGGCAAACGCUAUGGUGAAGGCAUAGUCCAGGGAGUGGCGAAAGUCACACAAACCGG

Variants of: B1
Assay: reverse-splicing fitness (ratio to wild type); higher = more active; in vitro selection; Mg2+ level not given
In short: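 An in vitro group I ribozyme library with randomized positions was T7-transcribed and gel-purified. In triplicate, 10 pmol RNA in EPPS pH 7.5 was reacted with 50 pmoles of a 30-nt RNA substrate for 1 h at 37 °C across several added MgCl2 levels (1–48 mM), then stopped with EDTA. Products were reverse transcribed from a substrate-complementary primer, PCR-amplified and sequenced (HiSeq 4000). Fitness is a variant's read proportion after selection over that before, normalised to wild type.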

In order of rising reverse-splicing fitness:
1. A111U A120U A145C C150U C169U U176G  0.0019
2. A111U A120U A145C C150U C169A U176C  0.00198
3. A111U A120U A145C C150G C169A U176A  0.00234
4. A111U A120U A145C C150U C169A U176A  0.00251
5. A111U A120U A145C C150G C169A U176G  0.00254
6. A111U A120U A145C C150A C169A  0.00256
7. A111U A120U A145G C150A C169G U176G  0.00267
8. A111U A120U A145C C150U C169A U176G  0.00275
9. A111U A120U A145C C150G C169A U176C  0.00276
10. A111U A120U A145C C150U C169U U176C  0.00285
11. A111U A120G A145C C150G C169G U176G  0.00359
12. A111U A120U A145C C150U C169U U176A  0.0036
13. A111U A120U A145C C150A C169G  0.00394
14. A111U A120G C169G U176G  0.00419
15. A111U A120G A145U C169A U176G  0.00427
16. A111U A120G A145U C150G C169G U176G  0.00439
17. A111U A120G C150G C169G U176G  0.00442
18. A111U A120G C169A U176G  0.00454
19. A111U A120U A145C C150A C169U  0.00469
20. A111U A120G C150G C169G U176C  0.00471
21. A111U A120G A145U C150A U176G  0.00474
22. A111U A120G A145U C150G C169G U176C  0.0049
23. A111U A120G A145G C169G U176G  0.00492
24. A111U A120G A145U C150U C169G U176G  0.00496
25. A111U A120G A145U C150G C169A U176G  0.00496
26. A111U A120G A145U C150A C169A U176G  0.00499
27. A111U A120G C150U C169G U176G  0.00503
28. A111U A120G A145U C150U C169A U176G  0.00508
29. A111U A120G A145C C150G C169U U176G  0.00521
30. A111U A120G A145C C150U C169A U176G  0.00531
31. A111U A120U A145G C150A C169G U176C  0.00547
32. A111U A120G C150G C169A U176G  0.0057
33. A111U A120G A145G C169U U176G  0.00601
34. A111U A120G C150G C169G U176A  0.00621
35. A111U A120G A145C C150G C169G U176C  0.00636
36. A111U A120G U176G  0.00656
37. A111U A120G A145U C150G C169G U176A  0.00701
38. A111U A120G A145G C150A U176G  0.00712
39. A111U A120U A145G C150A C169G U176A  0.00807
40. A111U A120G A145C C150G C169G U176A  0.00926
41. A111U A120G C150G C169A U176C  0.00933
42. A111U A120G C150G C169A U176A  0.00974
43. A111U A120G A145C C150U C169A U176C  0.00998
44. A111U A120G A145U C150A C169A U176C  0.0102
45. A111U A120G A145U C150G C169A U176A  0.0103
46. A111U A120G A145U C150G C169A U176C  0.0105
47. A111U A120G A145C C150U C169A U176A  0.012
48. A111U A120G A145U C150A C169A U176A  0.0123
49. A111U A120G A145U C150A U176A  0.0129
50. A111U A120G A145G C150A U176A  0.0138
51. A111U A120G A145C C150G C169U U176C  0.0146
52. A111U A120G A145C C150G C169U U176A  0.0163
53. A111U A120G A145U C150A U176C  0.018
54. A111U A120G A145U C150U C169A U176A  0.0184
55. A111U A120G A145U C169A U176A  0.0201
56. A111U A120G A145U C150U C169A U176C  0.0207
57. A111U A120G A145U C169A U176C  0.0247
58. A111U A120G C169A U176A  0.0264
59. A111U A120G A145U C150U C169G U176A  0.0274
60. A111U A120G A145G C150A U176C  0.0274
61. A111U A120G A145C C150U C169A  0.0284
62. A111U A120G C150U C169G U176A  0.0314
63. A111U A120G C169A U176C  0.0386
64. A111U A120G U176A  0.0388
65. A111U A120G C150U C169G U176C  0.0391
66. A111U A120G A145C C150U C169U  0.0397
67. A111U A120G C169G U176A  0.0412
68. A111U A120G A145G C169G U176A  0.0455
69. A111U A120G A145G C169U U176A  0.0467
70. A111U A120G A145C C150U C169G  0.0495
71. A111U A120G U176C  0.0497
72. A111U A120G A145G C169U U176C  0.0538
73. A111U A120G C169G U176C  0.0539
74. A111U A120G A145G C169G U176C  0.0601
75. A111U A120G A145U C169A  0.117
76. A111U A120G A145G C169A  0.119
77. A111U A120G A145G C169U  0.158
78. A111U A120G A145C  0.159
79. A111U A120G A145U C169U  0.164
80. A111U A120G A145U  0.172
81. A111U A120G A145G  0.175
82. A111U A120G A145U C169G  0.213
83. A111U A120G A145G C169G  0.222
84. A111U A120U  0.634
